pKd: −log10 of the molar value.
Legend:
Test in all cases: SPR
Protein A, recombinant = Protein A, recombinant (UniProt P38507); details: aptamer immobilized; 100 mM NaCl, 20 mM Tris-HCl pH 7.6, 10 mM MgCl2, 5 mM KCl, 1 mM CaCl2, 0.005% surfactant P20, 21 °C (SPR Biacore X100)
[1] = target: Protein A, native, biotinylated (Staphylococcus aureus) (UniProt P38507); details: protein immobilized, aptamer as analyte; 100 mM NaCl, 20 mM Tris-HCl pH 7.6, 10 mM MgCl2, 5 mM KCl, 1 mM CaCl2, 0.005% surfactant P20, 21 °C (SPR Biacore X100)
[2] = target: Protein A, native (Staphylococcus aureus) (UniProt P38507); details: aptamer immobilized; 100 mM NaCl, 20 mM Tris-HCl pH 7.6, 10 mM MgCl2, 5 mM KCl, 1 mM CaCl2, 0.005% surfactant P20, 21 °C (SPR Biacore X100)

| Sequence | pKd (Protein A, recombinant) | pKd [1] | pKd [2] |
| --- | --- | --- | --- |
| ATACCAGCTTATTCAATTAGCAACATGAGGGGGATGGAGGGGGTGGGTTCTCTCGGCTACAATCGTAATCAGTTAG [PA-C4] | 6.65 | – | – |
| ATACCAGCTTATTCAATTAGCAACATGAGGGGGATAGAGGGGGTGGGTTCTCTCGGCTACAATCGTAATCAGTTAG [PA#2/8 (unmodified)] | – | 5.43 | – |
| ATACCAGCTTATTCAATTGCGCACCACGGGAGTTGGCCACATTTGGAGTTGTTTTTGCACAATCGTAATCAGTTAG [PA-C10 (3'-biotin)] | 5.56 | – | 6.23 |
| ATACCAGCTTATTCAATTAGGCCAGATGAGGGGTGCCCATGGCGGGGTGGCTGCTCCAACAATCGTAATCAGTTAG [PA-C8 (3'-biotin)] | 6.35 | – | 7.00 |
| ATACCAGCTTATTCAATTAGCAACATGAGGGGGGATAGAGGGGGTGGGTTCTCTCGGCTACAATCGTAATCAGTTAG [PA-C7] | 5.79 | – | – |
| ATACCAGCTTATTCAATTAGCAACATGAGGGGGATAGAGGGGGTGGGTTCTCTCGGCTACAATCGTAATCAGTTAG [PA#2/8 (3'-biotin)] | 7.04 | – | 7.70 |
| ATACCAGCTTATTCAATTGGGCACCACGGGAGTCGGCCACATTTGGAGTTGTTTTTGCACAATCGTAATCAGTTAG [PA#14/89 (3'-biotin)] | 5.58 | – | 6.33 |
